Laboratory results: patent US11278600B2, “Human alpha-galactosidase variants” (Codexis, Inc., priority 2014, dated 2022)
Substitutions are numbered along the chain they refer to.

B1: 522 (protein)
chain: LDNGLARTPTMGWLHWERFMCNLDCQEEPDSCISEKLFMEMAERMVSEGWKDAGYKYLCIDDCWMAPQRDSEGRLQADPQRFPHGIRQLANHVHSKGLKLGIYADVGNKTCAGFPGSFGYYDIDAQTFADWGVDLLKFDGCYCDSLENLADGYKHMSLALNRTGRSIVYSCEWPLYMWPFQKPNYTEIRQYCNHWRNFADIDDSWASIKSILDWTSRNQERIVDVAGPGGWNDPDMLVIGNFGLSWDQQVTQMALWAIMAAPLFMSNDLRHISPQAKALLQDKDVIAINQDPLGKQGYQLRKGDNFEVWERPLSGDAWAVAIINRQEIGGPRSYTIPVASLGKGVACNPACFITQLLPVKRQLGFYNWTSRLKSHINPTGTVLLQLENTMQMSLKDLL
modifications: Synthetic Polypeptide sequence of Variant No. 522 of mature Human GLA
B2: 527 (protein)
chain: B1 chain with K56E, H92E
modifications: Synthetic Polypeptide sequence of Variant No. 527 of mature Human GLA
B3: 604 (protein)
chain: B1 chain with M39V, K56E
modifications: Synthetic Polypeptide sequence of Variant No. 604 of mature Human GLA
B4: 608 (protein)
chain: B1 chain with T8Q, K56E
modifications: Synthetic Polypeptide sequence of Variant No. 608 of mature Human GLA
B5: 529 (protein)
chain: B1 chain with K56E, K182A
modifications: Synthetic Polypeptide sequence of Variant No. 529 of mature Human GLA
B6: 524 (protein)
chain: B1 chain with K56E, N91V
modifications: Synthetic Polypeptide sequence of Variant No. 524 of mature Human GLA
B7: 605 (protein)
chain: B1 chain with T10P, K56E
modifications: Synthetic Polypeptide sequence of Variant No. 605 of mature Human GLA
B8: 526 (protein)
chain: B1 chain with K56E, R74H
modifications: Synthetic Polypeptide sequence of Variant No. 526 of mature Human GLA
B9: 528 (protein)
chain: B1 chain with K56E, D130Q
modifications: Synthetic Polypeptide sequence of Variant No. 528 of mature Human GLA
B10: 523 (protein)
chain: B1 chain with K56E, N91M
modifications: Synthetic Polypeptide sequence of Variant No. 523 of mature Human GLA
B11: 531 (protein)
chain: B1 chain with K56E, K182H
modifications: Synthetic Polypeptide sequence of Variant No. 531 of mature Human GLA
B12: 530 (protein)
chain: B1 chain with K56E, K182E
modifications: Synthetic Polypeptide sequence of Variant No. 530 of mature Human GLA
B13: 606 (protein)
chain: B1 chain with T10P, K56E, R189L
modifications: Synthetic Polypeptide sequence of Variant No. 606 of mature Human GLA
B14: 525 (protein)
chain: B1 chain with K56E, Q76H, W368A
modifications: Synthetic Polypeptide sequence of Variant No. 525 of mature Human GLA
B15: 607 (protein)
chain: B1 chain with T8L, K56E
modifications: Synthetic Polypeptide sequence of Variant No. 607 of mature Human GLA

Columns and labels:
Assay type in all cases: biochemical
[1] = HTP-analysis of yeast culture supernatants, no challenge (MUGal hydrolysis); conditions: activity of the variant/activity of Rd3BB (SEQ ID NO: 13)
In short: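 Activity read as 4-methylumbelliferyl α-D-galactopyranoside hydrolysis: fluorescence (355/448 nm) after sodium carbonate stop, following 30-180 min at 37° C with 2 mM MUGal stock at pH 4.6–4.8. Enzyme source is unchallenged culture supernatant of INVSc1 yeast expressing GLA variants, grown 66-84 h at 30° C.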

[2] = HTP-analysis of supernatants pretreated with acid (MUGal hydrolysis); conditions: activity of the variant/activity of Rd3BB (SEQ ID NO: 13); challenge at pH 3.7
In short: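 MUGal hydrolysis was tracked by fluorescence (Ex 355 nm, Em 448 nm) after a 30-180 min reaction at 37° C. in pH 4.8 McIlvaine/citrate buffer, stopped with 1 M sodium carbonate. Beforehand, yeast (INVSc1) culture supernatants carrying GLA variants were held 1-3 h at 37° C. in acidic McIlvaine buffer, pH 3.3-4.3.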

[3] = HTP-analysis of supernatants pretreated with base (MUGal hydrolysis); conditions: activity of the variant/activity of Rd3BB (SEQ ID NO: 13); challenge at pH 9.7
In short: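 GLA variants secreted from yeast INVSc1; culture supernatants pre-incubated with McIlvaine buffer pH 7.0–8.2 or 200 mM bicarbonate pH 9.1–9.7 at 37° C. for 1–18 h. Residual activity: MUGal (4 mM stock) hydrolysis at pH 4.3–4.8, 37° C., 30–180 min, carbonate quench; fluorescence Ex 355/Em 448 nm.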

| Molecule | Relative Activity of GLA Variants After No Challenge (NC) [1] | Relative Activity of GLA Variants After Challenge at pH 3.7 [2] | Relative Activity of GLA Variants After Challenge at pH 9.7 [3] |
| --- | --- | --- | --- |
| B1 | + (+ = 1.5 to 5 relative activity over Rd3BB (SEQ ID NO: 13)) | +++ (+++ = >10 relative activity over Rd3BB (SEQ ID NO: 13)) | ++ (++ = >5 to 10 relative activity over Rd3BB (SEQ ID NO: 13)) |
| B2 | + (+ = 1.5 to 5 relative activity over Rd3BB (SEQ ID NO: 13)) | + (+ = 1.5 to 5 relative activity over Rd3BB (SEQ ID NO: 13)) | ++ (++ = >5 to 10 relative activity over Rd3BB (SEQ ID NO: 13)) |
| B3 | + (+ = 1.5 to 5 relative activity over Rd3BB (SEQ ID NO: 13)) | + (+ = 1.5 to 5 relative activity over Rd3BB (SEQ ID NO: 13)) | ++ (++ = >5 to 10 relative activity over Rd3BB (SEQ ID NO: 13)) |
| B4 | + (+ = 1.5 to 5 relative activity over Rd3BB (SEQ ID NO: 13)) | + (+ = 1.5 to 5 relative activity over Rd3BB (SEQ ID NO: 13)) | + (+ = 1.5 to 5 relative activity over Rd3BB (SEQ ID NO: 13)) |
| B5 | + (+ = 1.5 to 5 relative activity over Rd3BB (SEQ ID NO: 13)) | + (+ = 1.5 to 5 relative activity over Rd3BB (SEQ ID NO: 13)) | ++ (++ = >5 to 10 relative activity over Rd3BB (SEQ ID NO: 13)) |
| B6 | − (− = <1.5 relative activity to Rd3BB (SEQ ID NO: 13)) | + (+ = 1.5 to 5 relative activity over Rd3BB (SEQ ID NO: 13)) | + (+ = 1.5 to 5 relative activity over Rd3BB (SEQ ID NO: 13)) |
| B7 | + (+ = 1.5 to 5 relative activity over Rd3BB (SEQ ID NO: 13)) | +++ (+++ = >10 relative activity over Rd3BB (SEQ ID NO: 13)) | ++ (++ = >5 to 10 relative activity over Rd3BB (SEQ ID NO: 13)) |
| B8 | + (+ = 1.5 to 5 relative activity over Rd3BB (SEQ ID NO: 13)) | + (+ = 1.5 to 5 relative activity over Rd3BB (SEQ ID NO: 13)) | ++ (++ = >5 to 10 relative activity over Rd3BB (SEQ ID NO: 13)) |
| B9 | + (+ = 1.5 to 5 relative activity over Rd3BB (SEQ ID NO: 13)) | + (+ = 1.5 to 5 relative activity over Rd3BB (SEQ ID NO: 13)) | ++ (++ = >5 to 10 relative activity over Rd3BB (SEQ ID NO: 13)) |
| B10 | + (+ = 1.5 to 5 relative activity over Rd3BB (SEQ ID NO: 13)) | + (+ = 1.5 to 5 relative activity over Rd3BB (SEQ ID NO: 13)) | + (+ = 1.5 to 5 relative activity over Rd3BB (SEQ ID NO: 13)) |
| B11 | + (+ = 1.5 to 5 relative activity over Rd3BB (SEQ ID NO: 13)) | + (+ = 1.5 to 5 relative activity over Rd3BB (SEQ ID NO: 13)) | ++ (++ = >5 to 10 relative activity over Rd3BB (SEQ ID NO: 13)) |
| B12 | + (+ = 1.5 to 5 relative activity over Rd3BB (SEQ ID NO: 13)) | + (+ = 1.5 to 5 relative activity over Rd3BB (SEQ ID NO: 13)) | ++ (++ = >5 to 10 relative activity over Rd3BB (SEQ ID NO: 13)) |
| B13 | + (+ = 1.5 to 5 relative activity over Rd3BB (SEQ ID NO: 13)) | +++ (+++ = >10 relative activity over Rd3BB (SEQ ID NO: 13)) | ++ (++ = >5 to 10 relative activity over Rd3BB (SEQ ID NO: 13)) |
| B14 | + (+ = 1.5 to 5 relative activity over Rd3BB (SEQ ID NO: 13)) | ++ (++ = >5 to 10 relative activity over Rd3BB (SEQ ID NO: 13)) | ++ (++ = >5 to 10 relative activity over Rd3BB (SEQ ID NO: 13)) |
| B15 | + (+ = 1.5 to 5 relative activity over Rd3BB (SEQ ID NO: 13)) | + (+ = 1.5 to 5 relative activity over Rd3BB (SEQ ID NO: 13)) | ++ (++ = >5 to 10 relative activity over Rd3BB (SEQ ID NO: 13)) |
